Laboratory results taken from patent US8409825B2, “Method for high-level secretory production of protein” (National Institute of Advanced Industrial Science and …, priority 2007, dated 2013).
Values joined by “and” are separate entries in the source; they are usually repeats but may differ in a detail not shown here. Equal entries are not always repeated. Where two headings read alike, the source gives them in different places.

How the values were obtained:
[1] = test system: antibody-producing yeast strain (ona02306 strain); details: for amount of antibody production: control 0.8 mg/l, FIG. 5
Description: Control culture was carried out at an agitation speed of 310 rpm, an amplitude of 50 mm, at 30° C. for 2 days, 100 μl of 2× YP-P6-GG medium was added, and 100 μl of 2× YP-P6-GG medium was further added on day 3. In the case of culture involving single addition of a rhodanine-3-acetic acid derivative 1c, culture was carried out at an agitation speed of 310 rpm, an amplitude of 50 mm, at 30° C. for 2 days, 100 μl of 2× YP-P6-GG medium was added, and 100 μl of 2× YP-P6-GG medium containing 20 μM of 1c was further added on day 3. In the case of culture involving addition of a rhodanine-3-acetic acid derivative 1c twice, culture was carried out at an agitation speed of 310 rpm, an amplitude of 50 mm, at 30° C. for 2 days, 100 μl of 2× YP-P6-GG medium containing 20 μM of 1c was added, and 100 μl of 2× YP-P6-GG medium containing 20 μM of 1c was further added on day 3.
Yeast cells were removed from the culture product via centrifugation at 2,700×g and 4° C. for 5 minutes, and the resulting culture supernatant was designated as a sample of secreted antibody. The secreted and produced antibodies were subjected to quantitative assay via sandwich ELISA. TRAIL receptor proteins that were antigens of the anti-TRAIL receptor antibodies were adsorbed on a 96-well plate, the sample of secreted antibody was added, and detection was carried out using a peroxidase-labeled human IgG specific Fc antibody (Peroxidase-labeled affinity purified antibody to human IgG (Fc) (KPL, 04-10-20)) and the ABTS peroxidase substrate (KPL, 50-66-01).
Western blotting was carried out as follows. After the protein was subjected to SDS-PAGE under reducing and non-reducing conditions, the separated protein was blotted to a PVDF membrane, and the antibody heavy chain and the light chain were detected using Anti-human IgG (γ-chain specific) (Sigma, I-3382) and Goat anti human kappa b&f affinity purified (Bethyl, A-80-115A) as the primary antibodies. Peroxidase conjugated affinity purified anti-goat IgG (H&L) (Rabbit) (Rockland, #605-4313) was used as the secondary antibody. […]

[2] = test system: S. cerevisiae ZUO1/YGR285C strain; details: control strain
Description: The S. cerevisiae ZUO1/YGR285C strain was sowed in 5 ml of YPAD medium (YPD medium containing 0.04% adenine (Sigma)), and yeast cells resulting from overnight culture at 30° C. and 310 rpm were used.
ST medium (500 μl) (Yeast Nitrogen Base and Ammonium sulfate medium containing 2% glucose, 0.04% adenine, and 0.3M KCl and lacking uracil and leucine (Sigma)) was applied onto a 96-deep well plate (Greiner, 780271), the transformant was sowed with the use of a toothpick, the top of the plate was sealed with CO2-permeable plate sealers (Greiner, 676051), and culture was carried out at an agitation speed of 310 rpm, an amplitude of 50 mm, at 30° C. for 3 days. Control culture was carried out by applying 1 ml of YPAD medium to a 96-deep well plate (Greiner, 780271). […] The culture solution that had been cultured in ST medium was sowed to a final concentration of 5%, and the top of the plate was sealed with CO2-permeable plate sealers (Greiner, 676051). Thereafter, culture was carried out at an agitation speed of 310 rpm, an amplitude of 50 mm, at 30° C. for 3 days. The culture supernatant was prepared from the culture solution and it was designated as a sample containing an antibody secreted and produced by yeast. […]

[3] = test system: O. minuta PMT4-deficient strain (ona98808 strain); details: 0.25 μM 1c (final concentration), FIG. 26
Description: The antibody-producing strain was cultured in the following manner. With the use of 2× YP-P6-GG medium (the medium was prepared by dissolving 20 g of Difco yeast extract and 40 g of Bacto peptone in 900 ml of pure water, sterilizing the solution via steaming under pressure, and adding 100 ml of separately sterilized 10× phosphate buffer (pH 6.0) (1M KH2PO4, 0.15M (NH4)2SO4, 0.375N KOH), 10 ml of a separately sterilized 50% glucose solution, and 25 ml of separately sterilized 80% glycerine), 800 μl of 2× YP-P6-GG medium was introduced into a 96-deep well plate (Greiner, 780271), the strains were sowed with the use of a toothpick, and the top of the plate was sealed with CO2-permeable plate sealers (Greiner, 676051). […]
Yeast cells were removed from the culture product via centrifugation at 2,700×g and 4° C. for 5 minutes, and the resulting culture supernatant was designated as a sample of secreted antibody. The secreted and produced antibodies were subjected to quantitative assay via sandwich ELISA. […] After the protein was subjected to SDS-PAGE under reducing and non-reducing conditions, the separated protein was blotted to a PVDF membrane, and the antibody heavy chain and light chain were detected using Anti-human IgG (γ-chain specific) (Sigma, I-3382) and Goat anti human kappa b&f affinity purified (Bethyl, A-80-115A) as the primary antibodies. […]

M. lysodeikticus = test: Bacteriolytic activity of secreted human lysozyme; format: biochemical; details: Table 3; for Bacteriolytic activity: culture supernatant, clones 1 to 3, 10 minutes at room temperature, absorbance at 450 nm; for Specific activity: per total amount of protein in culture supernatant, clones 1 to 3
Text: The expression vector for the aMF secretory signal-fused hLyz gene, onaP21808, was introduced into the ona01206 strain into which no chaperone combination was introduced, a strain that constitutively expresses a combination of O. minuta-derived chaperone genes; i.e., OmPDI1, OmERO1, and OmKar2, (i.e., the ona44607 strain), and a strain that constitutively expresses a combination of human-derived chaperone genes; i.e., synthetic hPDI, synthetic hERO1-Lβ, and synthetic hGRP78, (i.e., the ona68908 strain). Three clones were arbitrarily selected from the resulting colonies and cultured.
Also, bacteriolytic activity was assayed in the following manner. Bacteria of M. lysodeikticus was used as a substrate, and it was suspended in 50 mM phosphate buffer to prepare a substrate solution with a concentration of 0.16 mg/ml. To 240 μl of this substrate solution, 10 μl of a culture supernatant (the secreted human lysozyme) was added, and the mixture was incubated at room temperature for 10 minutes. Thereafter, the absorbance at 450 nm was assayed. […] Thus, a unit of lysozyme activity was defined as the amount of an enzyme that is necessary for the absorbance at 450 nm to be lowered by 0.001 per minute. Also, the total amount of proteins in the culture supernatant was assayed using the DC protein assay kit II (Bio-Rad, 500-0112JA) using bovine serum albumin as the standard.

[4] = molecular target: T1, human alpha-2,3-sialic acid transferase (ST3GalI) (Homo sapiens, UniProt Q11201); test: Sialic acid transferase (ST3GalI) enzyme activity assay of crude enzyme solution, HPLC, core 1-pNP substrate; format: biochemical; details: for Specific activity: Table 1, culture supernatant equivalent to 10 μU, EndoHf treated, Western blot signal intensity; for Activity: Table 2, culture supernatant, assayed with the elapse of time
T1 construct: The catalyst domain of the ST3GalI gene was first amplified via PCR; His6 (N); made in house; host or cells: Ogataea minuta TK10-1-2 derived strains (YT-2 to YT-7), with or without co-expressed O. minuta chaperones; culture supernatant used as crude enzyme
T1 sequence (Q11201 35-340 limits assumed): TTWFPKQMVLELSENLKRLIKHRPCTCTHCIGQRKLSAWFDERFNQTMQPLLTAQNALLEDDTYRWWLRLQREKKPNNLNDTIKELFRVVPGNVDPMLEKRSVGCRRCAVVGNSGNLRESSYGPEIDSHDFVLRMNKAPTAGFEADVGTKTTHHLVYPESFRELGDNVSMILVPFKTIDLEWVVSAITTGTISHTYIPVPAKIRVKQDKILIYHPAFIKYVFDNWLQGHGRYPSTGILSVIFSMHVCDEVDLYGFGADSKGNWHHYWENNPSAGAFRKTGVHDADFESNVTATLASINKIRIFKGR
Description: The YT-2 strain and the YT-3 strain were inoculated in 5 ml of YPAD+KCl medium (2% polypeptone, 1% yeast extract, 2% glucose, adenine (40 mg/l), 0.3 M potassium chloride), and preculture was carried out at 30° C. overnight. Subsequently, 1 ml of a preculture solution was inoculated in 150 ml of YPAD+KCl medium, and culture was carried out at 30° C. for 48 hours. The strains were recovered, resuspended in 100 ml of BMMY+2% casamino acid medium (1% yeast extract, 2% polypeptone, 1.34% Yeast Nitrogen Base without amino acids (Difco), 0.1 M KPi (pH 6.0), 2% casamino acid, 1% methanol), and cultured at 20° C. for 96 hours. Methanol was added to a concentration of 0.5% every 12 hours. After the completion of culture, the culture product was subjected to centrifugation to remove yeast cells, and the resulting solution was designated as a crude enzyme solution.
Enzyme activity was assayed in the following manner. A crude enzyme solution (2 μl) was added to 18 μl of a reaction solution (0.1 M Tris-HCl (pH 7.5), 1 mM MnCl2, 5 mM CMP-NeuAc, 50 μM core 1-pNP), and the reaction was initiated. After the reaction was carried out at 37° C. for 30 minutes, the reaction was terminated via boiling, and HPLC analysis was carried out. A Cosmosil 5C18-ARII column (4.6×250 mm, Nacalai Tesque, Inc.) was used, and a mixture of 0.2 M triethylamine-acetic acid (pH 7.0, solution A) and acetonitrile (solution B) (solution A:solution B=9:1) was used as a mobile phase. The column was equilibrated, the sample was injected therein, and elution was carried out 20 minutes thereafter. Detection was carried out using a UV detector (detection wavelength: 300 nm). A core1-pNP substrate was eluted 14.5 minutes later, and a reaction product, sialylcore1-pNP, was eluted 17 minutes later. The reaction product was quantified based on the peak area, and the result was designated as activity (U). The unit “1 U” was defined as the amount of an enzyme that is necessary to produce 1 μmol of the reaction product per minute.
Western blot analysis was then carried out. The culture supernatants in amounts equivalent to “10 μU” of the YT-2 strain and the YT-3 strain were subjected to treatment with EndoHf (NEB, P0703S) in accordance with the protocol, applied, and then subjected to SDS-PAGE. After electrophoresis, the product was transferred to a PVDF membrane, and Western blotting was carried out in accordance with a conventional technique. A mouse anti-FLAG M2 antibody (Sigma, F1804) was used as a primary antibody and an anti-mouse IgG antibody-alkaline phosphatase composite was used as a secondary antibody. Detection was carried out using CDP-Star and an image analyzer, LAS1000 (Fujifilm Corporation). Further, signals were quantified using Image Gauge (Fujifilm Corporation).
The expression vector for various chaperone gene combinations derived from O. minuta prepared in Example 4 was introduced into the YT-1 strain of Example 17. In the same manner as in Example 16, plasmids were cleaved with NotI to transform the YT-1 strain. After transformation, the resultant was applied on SD-Ura medium (2% glucose, 0.17% Yeast Nitrogen Base without amino acids (Difco), nucleic acid bases except for uracil, and amino acid mixture (20 to 400 mg/l)) and culture was carried out at 30° C. for 2 days. Whether or not the expression vector was incorporated into a chromosome was confirmed via colony PCR described in Example 5, an expressed strain having a coexpression vector (onaP09407) carrying two copies of the OmPDI1 expression cassette was designated as the YT-4 strain, an expressed strain having a coexpression vector (onaP09707) for OmPDI1 and OmKar2 was designated as the YT-5 strain, an expressed strain having a coexpression vector (onaP09507) for OmPDI1 and OmERO1 was designated as the YT-6 strain, and an expressed strain having a coexpression vector (onaP09607) for OmPDI1 and OmHSP104 was designated as the YT-7 strain. […]

[5] = molecular target: T1, human alpha-2,3-sialic acid transferase (ST3GalI); test: as above; format: biochemical; details: Table 2, 30 μl culture supernatant, Western blot signal intensity, with the elapse of time

Molecule: 5-[[3,4-(1-phenylmethoxy)phenyl]methylene]-4-oxo-2-thioxo-3-thiazolidineacetic acid [rhodanine-3-acetic acid derivative 1c]
- high-molecular-weight antibody heavy chain (Western blot, reducing electrophoresis) ([1]; addition of PMT inhibitors to culture, FIG. 6): decreased
- amount of antibody production ([1]; addition of PMT inhibitors twice (100 μl medium containing 20 μM 1c on day 2 and day 3)): approximately 1.9 mg/l
- amount of antibody production ([1]; single addition of PMT inhibitors (100 μl medium containing 20 μM 1c on day 3)): approximately 1.7 mg/l
- increase of amount of antibody secretory production when addition of an O-sugar chain was suppressed ([2]; 1c final concentration 10 μM, versus control culture): approximately 2.5 times
- amount of antibody secretory production ([2]; O-sugar chain addition suppressed (1c final concentration 10 μM), without 1c 3.9 ng/ml, FIG. 14): 10 ng/mL
- improvement of the amount of production [3]: approximately 13%

Molecule: Ona01206: secreted human lysozyme sample from strain into which no chaperone combination was introduced
- Bacteriolytic activity (M. lysodeikticus): 23.0 unit/ml and 22.3 unit/ml and 22.0 unit/ml
- Specific activity (M. lysodeikticus): 0.45 unit/mg and 0.42 unit/mg and 0.43 unit/mg

Molecule: Ona44607: secreted human lysozyme sample from strain constitutively expressing OmPDI1, OmERO1, and OmKar2
- Bacteriolytic activity (M. lysodeikticus): 33.3 unit/ml and 34.0 unit/ml
- Specific activity (M. lysodeikticus): 0.67 unit/mg and 0.65 unit/mg

Molecule: Ona68908: secreted human lysozyme sample from strain expressing synthetic hPDI, synthetic hERO1-Lβ, and synthetic hGRP78
- Bacteriolytic activity (M. lysodeikticus): 36.0 unit/ml and 29.3 unit/ml and 33.3 unit/ml
- Specific activity (M. lysodeikticus): 0.68 unit/mg and 0.61 unit/mg and 0.65 unit/mg

B1: YT-3: ST3GalI crude enzyme solution from O. minuta strain into which OmPDI1 (onaP03606) had been introduced (protein, UniProt Q11201 1-340, looked up)
CMP-N-acetylneuraminate-beta-g …: MVTLRKRTLKVLTFLVLFIFLTSFFLNYSHTMVATTWFPKQMVLELSENLKRLIKHRPCTCTHCIGQRKLSAWFDERFNQTMQPLLTAQNALLEDDTYRWWLRLQREKKPNNLNDTIKELFRVVPGNVDPMLEKRSVGCRRCAVVGNSGNLRESSYGPEIDSHDFVLRMNKAPTAGFEADVGTKTTHHLVYPESFRELGDNVSMILVPFKTIDLEWVVSAITTGTISHTYIPVPAKIRVKQDKILIYHPAFIKYVFDNWLQGHGRYPSTGILSVIFSMHVCDEVDLYGFGADSKGNWHHYWENNPSAGAFRKTGVHDADFESNVTATLASINKIRIFKGR
- difference in the expression levels (enzyme activity) compared with YT-2 ([4]; 96 hours later, FIG. 15): approximately 3.4 times
- Specific activity [4]: 3.36 pU/AU
- elevation of the specific activity by introduction of OmPDI1 ([4]; YT-3 versus YT-2): approximately 1.6 times

B2: YT-7: ST3GalI culture supernatant from strain coexpressing OmPDI1 and OmHSP104 (protein, UniProt Q11201 1-340, looked up)
CMP-N-acetylneuraminate-beta-g …: B1 CMP-N-acetylneuraminate-beta-g …
- Activity ([4]; listed as YT-7-1): 1.28 mU/ml
- Activity ([4]; listed as YT-7-2): 2.98 mU/ml
- Activity ([4]; listed as YT-7-3): 3.45 mU/ml
- Activity ([4]; listed as YT-7-4): 3.65 mU/ml
- Specific activity ([5]; listed as YT-7-1): 11.4 pU/AU
- Specific activity ([5]; listed as YT-7-2): 27.9 pU/AU
- Specific activity ([5]; listed as YT-7-3): 42.5 pU/AU
- Specific activity ([5]; listed as YT-7-4): 57.3 pU/AU

B3: YT-2: ST3GalI crude enzyme solution from O. minuta strain with control plasmid pOMexGP1U, no OmPDI1 (protein, UniProt Q11201 1-340, looked up)
CMP-N-acetylneuraminate-beta-g …: B1 CMP-N-acetylneuraminate-beta-g …
- Specific activity [4]: 2.13 pU/AU

B4: YT-5: ST3GalI culture supernatant from strain coexpressing OmPDI1 and OmKar2 (protein, UniProt Q11201 1-340, looked up)
CMP-N-acetylneuraminate-beta-g …: B1 CMP-N-acetylneuraminate-beta-g …
- Activity ([4]; listed as YT-5-1): 1.29 mU/ml
- Activity ([4]; listed as YT-5-2): 2.07 mU/ml
- Activity ([4]; listed as YT-5-3): 1.86 mU/ml
- Activity ([4]; listed as YT-5-4): 2.29 mU/ml
- Specific activity ([5]; listed as YT-5-1): 10.7 pU/AU
- Specific activity ([5]; listed as YT-5-2): 15.8 pU/AU
- Specific activity ([5]; listed as YT-5-3): 12.3 pU/AU
- Specific activity ([5]; listed as YT-5-4): 14.9 pU/AU
